These results are taken from the supplement of paper PMC9112550, “Optimization of the antimicrobial peptide Bac7 by deep mutational scanning” (BMC Biology, 2022).

The subject of this series is Escherichia coli TOP10. The experiment in a line: shrunken log2 fold change of peptide-encoding DNA abundance (4.5 h post-induction vs induction); higher = less antimicrobial activity (less host growth inhibition). Conditions: time post-induction: 4.5 h; library: site-saturation at positions 5, 18, 19, 20.
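Note: peptides expressed intracellularly from a pBAD plasmid library in pooled LB shake-flask culture, induced with 0.3% L-arabinose, DNA abundance read by NGS, three biological replicates, DESeq2 with apeglm shrinkage.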

As to RRIRGRPPRLPRPRPRPYTRPRP, the “shrunken log2 fold change” value is -0.0484. In the case of RRIRYRPPRLPRPRPRPPWPPRP it was 0.405; in that of RRIRGRPPRLPRPRPRPSPSPRP, 0.649; in that of RRIRARPPRLPRPRPRPFWHPRP, 0.165. For RRIRVRPPRLPRPRPRPDPNPRP, the “shrunken log2 fold change” value was -0.231. For RRIRCRPPRLPRPRPRPNFPPRP, the “shrunken log2 fold change” value came out at 0.346. Next, RRIRTRPPRLPRPRPRPHNEPRP: -0.581; RRIRVRPPRLPRPRPRPHGIPRP: 0.00955; RRIRSRPPRLPRPRPRPKTRPRP: 0.156. Next, RRIRARPPRLPRPRPRPHTFPRP: -0.314. In the case of RRIRQRPPRLPRPRPRPVHWPRP it was 0.188.

As to RRIRWRPPRLPRPRPRPFKMPRP, the “shrunken log2 fold change” value is -0.0125. Next, RRIRVRPPRLPRPRPRPPDMPRP: -0.239; RRIRTRPPRLPRPRPRPIATPRP: 0.227. Next, RRIRDRPPRLPRPRPRPDAEPRP: 1.23; RRIRMRPPRLPRPRPRPILFPRP: -0.385.

For RRIRYRPPRLPRPRPRPSARPRP, the “shrunken log2 fold change” value was -0.137. Regarding RRIRNRPPRLPRPRPRPTKYPRP, the “shrunken log2 fold change” value was -0.564. For the sequence RRIRWRPPRLPRPRPRPPDNPRP, the “shrunken log2 fold change” value worked out at 0.318. Next, RRIRYRPPRLPRPRPRPNRQPRP: -0.053.

Take RRIRNRPPRLPRPRPRPDMFPRP: the “shrunken log2 fold change” value is -0.00166. In the case of RRIRNRPPRLPRPRPRPILWPRP it was 0.123. Next, RRIRARPPRLPRPRPRPPMMPRP: 0.421; RRIRARPPRLPRPRPRPHWTPRP: -0.0108; RRIRFRPPRLPRPRPRPKTIPRP: -0.223. Next, RRIRERPPRLPRPRPRPTRQPRP: 0.588; RRIRFRPPRLPRPRPRPHEFPRP: -0.0308. As to RRIRERPPRLPRPRPRPYNYPRP, the “shrunken log2 fold change” value is -0.519. Next, RRIRWRPPRLPRPRPRPFQDPRP: -0.496; RRIRQRPPRLPRPRPRPAIKPRP: -0.316; RRIRSRPPRLPRPRPRPKMHPRP: 0.157. Next, RRIRKRPPRLPRPRPRPHMDPRP: 0.0185; RRIRDRPPRLPRPRPRPSHIPRP: -1.15; RRIRERPPRLPRPRPRPQDIPRP: -0.135. With RRIRWRPPRLPRPRPRPLWFPRP, the “shrunken log2 fold change” value worked out at 0.134. In the case of RRIRSRPPRLPRPRPRPAQKPRP it was 0.33; in that of RRIRIRPPRLPRPRPRPMLMPRP, -0.515. Next, RRIRQRPPRLPRPRPRPEMNPRP: 0.0404; RRIRSRPPRLPRPRPRPPVYPRP: 0.0599. For the sequence RRIRWRPPRLPRPRPRPSSNPRP, the “shrunken log2 fold change” value was -0.0759. Consider RRIRMRPPRLPRPRPRPPFHPRP, for which the “shrunken log2 fold change” value is 0.0707. As to RRIRTRPPRLPRPRPRPRQVPRP, the “shrunken log2 fold change” value is -0.0471. In the case of RRIRERPPRLPRPRPRPQCTPRP it was -0.012; in that of RRIRERPPRLPRPRPRPGRVPRP, 0.195. In the case of RRIRKRPPRLPRPRPRPEAKPRP it was 2.54. In the case of RRIRTRPPRLPRPRPRPWKQPRP it was 0.0162; in that of RRIRCRPPRLPRPRPRPNQDPRP, -0.348. As for RRIRWRPPRLPRPRPRPGPYPRP, the “shrunken log2 fold change” value was -0.161. Regarding RRIRGRPPRLPRPRPRPYHPPRP, the “shrunken log2 fold change” value was -0.559. In the case of RRIRWRPPRLPRPRPRPSVMPRP it was -0.333; in that of RRIRNRPPRLPRPRPRPIDIPRP, -0.947. On to RRIRERPPRLPRPRPRPHCFPRP, for which the “shrunken log2 fold change” value was 0.0259. RRIRARPPRLPRPRPRPPQSPRP: the “shrunken log2 fold change” value was found to be 0.993. With RRIRYRPPRLPRPRPRPPISPRP, the “shrunken log2 fold change” value is -0.501. Next, RRIRCRPPRLPRPRPRPDLTPRP: -0.275; RRIRTRPPRLPRPRPRPFKSPRP: -0.0217; RRIRNRPPRLPRPRPRPAMNPRP: -0.000576.

In the case of RRIRWRPPRLPRPRPRPHQDPRP, the “shrunken log2 fold change” value came out at 0.134. Next, RRIRMRPPRLPRPRPRPQQAPRP: 0.0303. On to RRIRKRPPRLPRPRPRPRPTPRP, for which the “shrunken log2 fold change” value came out at 1.04. On to RRIRSRPPRLPRPRPRPMPCPRP, for which the “shrunken log2 fold change” value turned out to be 0.216. Next, RRIRPRPPRLPRPRPRPQFVPRP: -0.528.

Turning to RRIRGRPPRLPRPRPRPKMIPRP, the “shrunken log2 fold change” value stood at 0.425. In the case of RRIRARPPRLPRPRPRPVSWPRP it was 0.813; in that of RRIRIRPPRLPRPRPRPSDPPRP, -0.136; in that of RRIRSRPPRLPRPRPRPKPIPRP, 0.271. In the case of RRIRKRPPRLPRPRPRPKNWPRP it was 0.474; in that of RRIRMRPPRLPRPRPRPHDSPRP, -0.0393. For the sequence RRIRCRPPRLPRPRPRPGKQPRP, the “shrunken log2 fold change” value is -0.106. With RRIRWRPPRLPRPRPRPMNPPRP, the “shrunken log2 fold change” value is -0.153. Next, RRIRTRPPRLPRPRPRPYEHPRP: -0.0707; RRIRNRPPRLPRPRPRPNQQPRP: -0.0748; RRIRDRPPRLPRPRPRPCREPRP: 0.123. On to RRIRHRPPRLPRPRPRPPFRPRP, for which the “shrunken log2 fold change” value is 0.141. Next, RRIRKRPPRLPRPRPRPHIDPRP: 0.0232. Next, RRIRGRPPRLPRPRPRPAYYPRP: -0.0149; RRIRMRPPRLPRPRPRPYYMPRP: -0.0189. Regarding RRIRRRPPRLPRPRPRPIMQPRP, the “shrunken log2 fold change” value is -0.0408.

For the sequence RRIRGRPPRLPRPRPRPGPSPRP, the “shrunken log2 fold change” value worked out at 1.05. Turning to RRIRTRPPRLPRPRPRPVVKPRP, the “shrunken log2 fold change” value is -0.189. In the case of RRIRMRPPRLPRPRPRPETNPRP it was 2.42. Take RRIRARPPRLPRPRPRPWTQPRP: the “shrunken log2 fold change” value was 0.0723. In the case of RRIRTRPPRLPRPRPRPKEHPRP it was -0.174. Take RRIRKRPPRLPRPRPRPDFLPRP: the “shrunken log2 fold change” value turned out to be 0.179. Next, RRIRPRPPRLPRPRPRPERLPRP: 0.0284; RRIRYRPPRLPRPRPRPFCMPRP: -0.604. As to RRIRPRPPRLPRPRPRPCVGPRP, the “shrunken log2 fold change” value worked out at 0.267. Next, RRIRWRPPRLPRPRPRPMMTPRP: 0.0544; RRIRRRPPRLPRPRPRPKEYPRP: -0.0535. On to RRIRHRPPRLPRPRPRPLQRPRP, for which the “shrunken log2 fold change” value was -0.187. On to RRIRWRPPRLPRPRPRPMHKPRP, for which the “shrunken log2 fold change” value came to 0.219. In the case of RRIRYRPPRLPRPRPRPKWTPRP it was -0.298. In the case of RRIRSRPPRLPRPRPRPEWSPRP it was 0.233; in that of RRIRDRPPRLPRPRPRPTNQPRP, -0.00895. With RRIRMRPPRLPRPRPRPPKTPRP, the “shrunken log2 fold change” value turned out to be 0.891. As to RRIRGRPPRLPRPRPRPMTEPRP, the “shrunken log2 fold change” value stood at 0.0819. RRIRWRPPRLPRPRPRPCMSPRP: the “shrunken log2 fold change” value is -0.00264. Next, RRIRLRPPRLPRPRPRPVMHPRP: -0.16; RRIRYRPPRLPRPRPRPKRSPRP: -0.113; RRIRQRPPRLPRPRPRPTRKPRP: -0.0205. For RRIRPRPPRLPRPRPRPWCMPRP, the “shrunken log2 fold change” value was -0.355. In the case of RRIRFRPPRLPRPRPRPAQQPRP it was -0.0456; in that of RRIRTRPPRLPRPRPRPTWYPRP, -0.0546; in that of RRIRCRPPRLPRPRPRPYCRPRP, -0.0628.

Regarding RRIRIRPPRLPRPRPRPMEPPRP, the “shrunken log2 fold change” value was -0.101.

For RRIRGRPPRLPRPRPRPIAPPRP, the “shrunken log2 fold change” value was determined as 1.29. Next, RRIRDRPPRLPRPRPRPHCLPRP: 0.12; RRIRKRPPRLPRPRPRPIACPRP: 0.104; RRIRSRPPRLPRPRPRPTPCPRP: 0.254. On to RRIRVRPPRLPRPRPRPEARPRP, for which the “shrunken log2 fold change” value was 0.389. RRIRPRPPRLPRPRPRPNRKPRP: the “shrunken log2 fold change” value is -0.371. Next, RRIRQRPPRLPRPRPRPCKIPRP: -0.0788; RRIRARPPRLPRPRPRPVSLPRP: -0.0174; RRIRKRPPRLPRPRPRPNLPPRP: 0.118.

With RRIRGRPPRLPRPRPRPAKAPRP, the “shrunken log2 fold change” value worked out at 0.233. Next, RRIRTRPPRLPRPRPRPQLAPRP: 0.129. Take RRIRMRPPRLPRPRPRPLIMPRP: the “shrunken log2 fold change” value was -0.0525.

For RRIRLRPPRLPRPRPRPSMGPRP, the “shrunken log2 fold change” value came out at 0.0483. Consider RRIRKRPPRLPRPRPRPPVKPRP, for which the “shrunken log2 fold change” value was found to be 0.181. In the case of RRIRVRPPRLPRPRPRPNALPRP, the “shrunken log2 fold change” value is -0.379.

Consider RRIRPRPPRLPRPRPRPYIPPRP, for which the “shrunken log2 fold change” value is -0.719. Consider RRIRCRPPRLPRPRPRPFLWPRP, for which the “shrunken log2 fold change” value was -0.119.

As to RRIRKRPPRLPRPRPRPLYWPRP, the “shrunken log2 fold change” value stood at 0.149. On to RRIRDRPPRLPRPRPRPGNNPRP, for which the “shrunken log2 fold change” value was -0.125.

For the sequence RRIRQRPPRLPRPRPRPGRTPRP, the “shrunken log2 fold change” value was -0.433.
